The target of assay [1] is T1, murine tissue factor (TF) on transfected HEK293F cells (murine, UniProt P20352 29-294).
T1 construct: whole, on cells; also called murine TF; TFmm
T1 sequence (looked up): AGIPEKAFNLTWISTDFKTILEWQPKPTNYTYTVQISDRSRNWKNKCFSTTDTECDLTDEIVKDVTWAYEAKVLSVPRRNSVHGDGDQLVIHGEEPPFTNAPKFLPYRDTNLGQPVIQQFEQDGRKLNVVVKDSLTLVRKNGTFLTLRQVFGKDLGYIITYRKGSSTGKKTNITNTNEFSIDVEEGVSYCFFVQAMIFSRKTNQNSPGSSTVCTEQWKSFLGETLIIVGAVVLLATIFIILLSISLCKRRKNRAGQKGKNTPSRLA
Briefly: FACS on transfected HEK293F cells, 30 µg/mL antibody [panel G].

Assay [2] concerns the target T2, human tissue factor (TF), membrane-bound on cells (human, UniProt P13726 33-295).
T2 construct: whole, on cells; also called cellular TF
Briefly: FACS, TF transfected CHO cells (S1015-TF), 7.5 µg/mL. As for the experimental part: (§1) Cells were resuspended in PBS (2×10⁶ cells/ml), put in 96-well V-bottom plates (50 μl/well). 50 μl of serially diluted HuMab in FACS buffer (PBS supplemented with 0.1% BSA and 0.02% Na-azide) was added to the cells and incubated for 30 minutes on ice. After washing three times with FACS buffer, 50 μl of phycoerythrin (PE)-conjugated goat anti-human IgGFc (Jackson ImmunoResearch), diluted 1:100 in FACS buffer, was added. After 30 minutes on ice (in the dark), cells were washed three times, and specific binding of the HuMabs was detected by flow cytometry on a FACSCalibur (BD Biosciences). HuMab-KLH was used as a negative control. Mouse anti-TF followed by PE-conjugated anti-mouse IgGFc was used as positive control. Binding curves were analyzed using non-linear regression (sigmoidal dose-response with variable slope) using GraphPad Prism V4.03 software (GraphPad Software, San Diego, Calif., USA).

The target of assay [3] is T2, human tissue factor (TF), …. The experiment in a line: cell-based or functional assay.
The target of assay [4] is T1, murine tissue factor (TF) on …. The experiment in a line: FACS on transfected HEK293F cells, 30 µg/mL antibody [panel E].
The target in assay [5] is T2, human tissue factor (TF), …. Briefly: FACS, A431 cells. The method, then: as §1
Assay [6] shares this target. Briefly: FACS, MDA-MB-231 cells. As for the experimental part: as §1
Assay [7] has as its target T3, TFECDHis (extracellular domain of tissue factor, amino acid 1-251, with C-terminal His tag) (human, UniProt P13726 33-251).
T3 construct: range 1-251; The stated range 1-251 starts at residue 1 of NP-001984; also called extracellular domain of TF
The experiment in a line: competition ELISA, inhibition of FVIIa (100 nM) binding to coated TFECDHis. As for the experimental part:
ELISA plates were coated overnight with TFECDHis (0.5 μg/mL, 100 μL per well). Plates were emptied, blocked with PBS containing 2% (v/v) chicken serum (1 hour, RT), and emptied again. […] Plates were washed and incubated with swine-anti-rabbit IgG-HRP antibody (1:2,500; DAKO). After washing, the immune complexes were visualized using ABTS as a substrate.
A general note: ELISA stands for enzyme-linked immunosorbent assay.

The target of assay [8] is T2, human tissue factor (TF), …. The experiment in a line: cell-based or functional assay. This is another data set of the same source.
Assay [9] has the same target. Briefly: FACS, A431 cells, 30 µg/mL. As for the experimental part:
as §1
Background: In flow cytometry, cells or beads pass a laser one at a time.

Assay [10] has as its target T3, TFECDHis (extracellular domain of …). Briefly: SPR BIAcore 3000, HuMab immobilized, TFECDHis analyte. The method, then:
Antibody binding to TF was analyzed by surface plasmon resonance in a BIAcore 3000 (GE Healthcare). TFECDHis was used for the analysis. HuMab antibodies (500 resonance units) were immobilized on the CM-5 sensor chip according to the procedure recommended by the manufacturer. Briefly, after surface activation by EDC and NHS HuMab antibody was injected over the activated CM-5 surface in 10 mM sodium-acetate, pH ranging from 4.0 to 5.5 at 5 μl/min. followed by 1 M Ethanolamine for deactivation. Concentration series of TFECDHis in HBS-EP buffer were injected over the immobilized antibodies at a flow rate of 30 μl/min for 180 sec. Regeneration of the HuMab surface was performed by injection of 10 mM Glycine-HCl pH 2.0 or 10 mM sodium acetate pH 3.0. Kinetic analysis was performed using double reference subtraction and model 1:1 (langmuir) binding analysis.

The target in assay [11] is T4, TF (Innovin) (UniProt P13726 33-295, limits assumed). The experiment in a line: cell-based or functional assay.
Assay [12] has as its target T2, human tissue factor (TF), …. The experiment in a line: FACS, MDA-MB-231 cells, 30 µg/mL. The method, then: as §1
For assay [13], the target named is T4, TF (Innovin). The experiment in a line: cell-based or functional assay. The source holds these as a separate data set.
The target of assay [14] is T2, human tissue factor (TF), …. Briefly: cell-based or functional assay. The source holds these as a separate data set.
The target is the same in assay [15]. Briefly: FACS, Bx-PC3 cells. As for the experimental part:
as §1

Assay [16] has the same target. Briefly: FACS, TF transfected CHO cells (S1015-TF). The method, then: as §1
Assay [17] concerns the target T3, TFECDHis (extracellular domain of …). The experiment in a line: ELISA, coated TFECDHis, mean of 3. The method, then:
The specificity of the obtained anti-TF HuMabs was evaluated by ELISA. ELISA plates (Microlon; Greiner Bio-One) were coated overnight at +4° C. with 0.5 μg/mL of TFECDHis in PBS, pH 7.4. Coated ELISA plates were emptied and blocked for one hour at room temperature with 2% (v/v) chicken serum (Gibco, Paisley, Scotland) in PBS and washed with PBS containing 0.05% Tween 20 (PBST). Subsequently, HuMabs, serially diluted in PBSTC (PBS supplemented with 2% (v/v) chicken serum and 0.05% (v/v) Tween-20), were incubated for 1 hr at RT under shaking conditions (300 rpm). Bound HuMabs were detected using HRP-conjugated goat-anti-human IgG antibodies (Jackson ImmunoResearch) diluted 1:5,000 in PBSTC, which were incubated for 1 hr at RT under shaking conditions (300 rpm). […] HuMab-KLH (a human monoclonal antibody against KLH (keyhole limpet haemocyanin)), was used as a negative control. Mouse anti-human TF (ERL) was used as positive control (HRP labeled anti-mouse IgG as conjugate). Binding curves were analyzed using non-linear regression (sigmoidal dose-response with variable slope) using GraphPad Prism V4.03 software.

The target of assay [18] is T2, human tissue factor (TF), …. Briefly: FACS, Bx-PC3 cells, 30 µg/mL. The method, then:
as §1

For assay [19] the target is unchanged. The experiment in a line: FACS on SK-OV-3 cells (~60.000 TF molecules/cell) [panel SK-OV-3 cells]. The method, then: as §1
Binding of anti-TF HuMabs to membrane-bound TF on cell lines expressing different levels of TF was determined by FACS analysis, essentially as described supra. […] Fluorescence was measured on a FACSCantoII. Binding curves were analyzed essentially as described supra, using GraphPad Prism 5 software. The amount of TF molecules on cell lines was determined by Qifi kit (Dako, Glostrup, Denmark), according to the manufacturer's instructions.

Assay [20] has as its target T1, murine tissue factor (TF) on …. Briefly: FACS on transfected HEK293F cells, 30 µg/mL antibody [panel B].
Assay [21] addresses T2, human tissue factor (TF), …. Briefly: FACS on MDA-MB-231 cells (~900.000 TF molecules/cell) [panel MDA-MB-231 cells]. The method, then: as §1
(§2) Binding of anti-TF HuMabs to membrane-bound TF on cell lines expressing different levels of TF was determined by FACS analysis, essentially as described supra. Mouse anti-TF antibody followed by PE-conjugated anti-mouse IgGFc was used as a positive control. Fluorescence was measured on a FACSCantoII. Binding curves were analyzed essentially as described supra, using GraphPad Prism 5 software. The amount of TF molecules on cell lines was determined by Qifi kit (Dako, Glostrup, Denmark), according to the manufacturer's instructions.

Assay [22] concerns the target T3, TFECDHis (extracellular domain of …). The experiment in a line: ELISA on coated extracellular domain of TF, detection with HRP-conjugated donkey anti-human H+L.
The target of assay [23] is T2, human tissue factor (TF), …. Briefly: FACS on AsPC-1 cells (~175.000 TF molecules/cell) [panel AsPC-1 cells]. The method, then: as §1, §2

B1: anti-TF HuMab 042 (antibody, V domains shown)
VH: EVQLLESGGGLVQPGGSLRLSCAASGFTFSSYGMSWVRQAPGKGLEWVSVISGSGGTTYYADSVKGRFTISRDNSKNTLYLQMNSLRAEDTAVYYCAKAPWTYYFDYWGQGTLVTVSS
VL: not shown
notes: Human monoclonal antibody from HuMab mice
B1: the binding result in assay [1] is listed as “no binding (tested: 30 µg/mL)”.

B2: anti-TF HuMab 025 (antibody, V domains shown)
VH: QVQLVESGGGVVQPGRSLRLSCAASGFTFSRYAMHWVRQAPGKGLEWVAVISNDGYNDYYADSVKGRFTVSRDNSKNTLYLQMNSLRAEDTAVYYCARDGQLGRGYFDYWGQGTLVTVSS
VL: EIVLTQSPATLSLSPGERATLSCRASQSVSSYLAWYQQKPGQAPRLLIYDASNRATGIPARFSGSGSGTDFTLTISSLEPEDFAVYYCQQRSNWPLTFGGGTKVEIK
notes: as for B1
The term EC50 denotes the concentration giving half of the maximal effect. Usually Kd stands for the constant that tells how readily two partners part at equilibrium. On to B2, for which the “Max MFI” value came to 5810 in assay [2], 3170 in assay [9], 2250 in assay [12] and 1320 in assay [18]. For the same molecule, the “EC50 of ADCC, A431 cells” value in assay [3] was determined as 0.16 nM. Besides, in [3], the “EC50 of ADCC, Bx-PC3 cells” value is 0.15 nM. Moreover, the “EC50 of ADCC, MDA-MB-231 cells” value in [3] is 0.24 nM. Moreover, the binding result in assay [4] is on record as “no binding (tested: 30 µg/mL)”. The EC50 was 5.19 nM in assay [5]; 0.69 nM in assay [6]; 0.88 nM in assay [15]; 0.73 nM in assay [16]; 0.34 nM in assay [17]. This molecule also gave a max inhibition in assay [7] of 90%. Further, the “% max inhibition of FVIIa induced ERK phosphorylation (A431)” value in assay [8] came out at 66%. The “IC50, inhibition of FVIIa induced ERK phosphorylation (A431)” value in assay [8] amounted to 2.16 nM. The Kd in assay [10] is 1.97 nM. Besides, the “IC50, inhibition of blood coagulation (TF induced clotting time)” value in the assay with TF (Innovin) [11] amounted to 2.3 nM. Further, the “% max inhibition of FXa generation” value with TF (Innovin) [13] was 19%. The “IC50, inhibition of FXa generation” value with TF (Innovin) [13] turned out to be 0.3 nM. The “IC50, inhibition of FVIIa induced IL-8 release (MDA-MB-231)” value in [14] came out at 23.1 nM. Further, the “max inhibition of FVIIa induced IL-8 release (MDA-MB-231)” value in assay [14] was found to be 75.6%.

B3: anti-TF HuMab 011 (antibody, V domains shown)
VH: EVQLLESGGGLVQPGGSLRLSCAASGFTFSNYAMSWVRQAPGKGLEWVSSISGSGDYTYYTDSVKGRFTISRDNSKNTLYLQMNSLRAEDTAVYYCARSPWGYYLDSWGQGTLVTVSS
VL: DIQMTQSPPSLSASAGDRVTITCRASQGISSRLAWYQQKPEKAPKSLIYAASSLQSGVPSRFSGSGSGTDFTLTISSLQPEDFATYYCQQYNSYPYTFGQGTKLEIK
notes: Human monoclonal antibody from HuMab mice; also called HuMab-TF-11
By EC50 (read off the curve) is commonly meant the concentration at which the effect is half-maximal. On to B3, for which the “EC50 (read off the curve)” value in assay [19] is approximately 0.02 µg/mL; in assay [21], approximately 0.03 µg/mL; in assay [22], approximately 0.1 µg/mL; in assay [23] it was approximately 0.07 µg/mL. Besides, the “Max MFI” value was determined as 5650 in [2], 2610 in assay [9], 2140 in assay [12] and 1280 in assay [18]. Further, the binding result in assay [20] is “no binding (tested: 30 µg/mL)”. Further, the EC50 turned out to be 0.2 nM in assay [5], 1.01 nM in [15], 1.32 nM in assay [16] and 0.16 nM in [17]. In addition, binding in assay [10] was characterised by a dissociation constant (Kd) of 3.15 nM. In addition, the “IC50, inhibition of blood coagulation (TF induced clotting time)” value with TF (Innovin) [11] amounted to 1.6 nM.
